In paper PMC2361330 (British Journal of Cancer, 2006):

Target: Vascular endothelial growth factor receptor 1 (human (endogenous in HT29), UniProt P17948 27-1338)
Experiment: cell-based or functional assay

Chain of Vascular endothelial growth factor receptor 1 (P17948 27-1338): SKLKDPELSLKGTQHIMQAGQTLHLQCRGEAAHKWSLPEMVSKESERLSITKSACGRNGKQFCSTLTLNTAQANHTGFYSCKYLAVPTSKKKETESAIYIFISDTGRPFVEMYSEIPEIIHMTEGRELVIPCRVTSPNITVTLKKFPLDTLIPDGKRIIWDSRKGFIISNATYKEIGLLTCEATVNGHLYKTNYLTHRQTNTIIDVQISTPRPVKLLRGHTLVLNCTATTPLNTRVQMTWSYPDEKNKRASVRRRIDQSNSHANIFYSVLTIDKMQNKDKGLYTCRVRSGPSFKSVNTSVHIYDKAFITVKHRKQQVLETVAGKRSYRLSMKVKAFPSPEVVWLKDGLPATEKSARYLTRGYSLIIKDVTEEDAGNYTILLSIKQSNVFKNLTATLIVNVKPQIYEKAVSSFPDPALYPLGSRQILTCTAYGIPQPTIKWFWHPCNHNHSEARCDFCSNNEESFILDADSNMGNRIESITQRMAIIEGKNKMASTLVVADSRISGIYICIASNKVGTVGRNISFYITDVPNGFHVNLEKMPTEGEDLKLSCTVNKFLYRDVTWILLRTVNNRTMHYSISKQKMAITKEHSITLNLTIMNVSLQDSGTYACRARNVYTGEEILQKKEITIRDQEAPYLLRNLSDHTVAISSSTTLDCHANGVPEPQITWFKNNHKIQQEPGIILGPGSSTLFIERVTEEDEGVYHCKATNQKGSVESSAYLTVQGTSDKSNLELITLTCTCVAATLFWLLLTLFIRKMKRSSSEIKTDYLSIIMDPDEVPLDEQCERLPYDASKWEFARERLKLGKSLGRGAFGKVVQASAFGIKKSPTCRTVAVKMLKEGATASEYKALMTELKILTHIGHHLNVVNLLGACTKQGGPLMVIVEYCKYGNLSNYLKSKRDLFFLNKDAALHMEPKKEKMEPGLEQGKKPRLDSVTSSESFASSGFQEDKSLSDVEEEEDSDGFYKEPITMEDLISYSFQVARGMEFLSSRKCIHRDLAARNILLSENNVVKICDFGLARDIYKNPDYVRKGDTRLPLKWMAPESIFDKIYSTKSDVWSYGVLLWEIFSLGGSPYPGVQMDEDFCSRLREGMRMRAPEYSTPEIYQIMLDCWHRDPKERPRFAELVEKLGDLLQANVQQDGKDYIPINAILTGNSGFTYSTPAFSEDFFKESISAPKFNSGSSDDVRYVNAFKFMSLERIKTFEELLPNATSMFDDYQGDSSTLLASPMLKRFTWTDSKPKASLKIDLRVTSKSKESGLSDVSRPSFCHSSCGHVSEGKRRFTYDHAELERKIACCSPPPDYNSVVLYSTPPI

B1: Yes (enzyme)
chain: not shown
- Yes kinase activity by immune complex kinase assay in HT29 cells treated with VEGF-A (10 ng ml^−1) for 0-15 min: ~2.5 fold
